Experimental findings from article PMC8680157 are described below.

By pKd is commonly meant the negative decadic logarithm of the Kd, by convention in mol/L. Read a low pKd as a high Kd.

Assay [1] has as its target fluorescently labelled nucleosome core particle ubiquitylated at H2A K13 and K15 (human) (UniProt P68431). Description: fluorescence polarisation. A general note: Fluorescence polarisation rises when a labelled molecule tumbles more slowly, as on binding a larger partner.
Assay [2] deals with fluorescently labelled nucleosome core particle (NCP), non-ubiquitylated (human) (UniProt P68431). Description: fluorescence polarisation.

pKd: −log10 of the molar value.

Sequence of GST-tagged BARD1 (ARD–BRCT), residues 415–777, wild type (Q99728 415-777): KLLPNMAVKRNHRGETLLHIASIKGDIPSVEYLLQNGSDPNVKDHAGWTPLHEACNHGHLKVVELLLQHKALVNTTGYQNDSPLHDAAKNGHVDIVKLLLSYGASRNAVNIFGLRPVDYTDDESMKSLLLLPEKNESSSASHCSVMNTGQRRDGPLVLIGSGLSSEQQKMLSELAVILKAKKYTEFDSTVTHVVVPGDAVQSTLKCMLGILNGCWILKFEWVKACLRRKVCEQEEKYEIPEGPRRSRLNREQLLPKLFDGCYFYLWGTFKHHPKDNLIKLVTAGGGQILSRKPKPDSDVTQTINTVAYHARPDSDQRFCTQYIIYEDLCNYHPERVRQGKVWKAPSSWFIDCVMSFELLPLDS

As for “BRCA1^R–BARD1^Long, BRCA1 (residues 1–100)–BARD1 (residues 26–777) (from UniProt P38398 1-100; Q99728 26-777) (enzyme)”, the pKd in assay [1] was 7.70; in assay [2], 7.22.
The substance “BRCA1^R–BARD1^R, fusion of BRCA1 (residues 1–100) and BARD1 (residues 26–122) (from UniProt P38398 1-100; Q99728 26-122) (enzyme)” had a pKd in assay [2] of 5.10.
“GST-tagged BARD1 (ARD–BRCT), residues 415–777, wild type (from UniProt Q99728 415-777) (domain or fragment)” showed a pKd in assay [1] of 6.70.
